Measurements reported in patent US7172865B2, “Rapid and sensitive assay for the detection and quantification of coregulators of nucleic acid binding factors” (Saint Louis University, priority 2001, dated 2007).

How the values were obtained:
[1] = test system: CAP5/CAP3 and CAP4/CAP1 nucleic acid duplexes; test: CAP assay with 7-diethylaminocoumarin-3-carboxylic acid donor and dabcyl acceptor; type: binding, E. coli; conditions: 100 nM CAP, 50 nM duplexes, 200 μM cAMP
Source text: (§1) Amino-Modifier C2 dT (Glen Research, Sterling, Va.) was incorporated into positions that are equivalent to the positions at which fluorescein-dT and dabcyl-dT has been used previously in CAP2 and CAP4 oligonucleotides, respectively. Amino-Modifier C2 dT contains a reactive aliphatic amino group that can be used to covalently attach any amino-reactive fluorescence probe. CAP5 (SEQ ID NO:7) and CAP6 (SEQ ID NO:8) oligonucleotides were modified with 7-diethylaminocoumarin-3-carboxylic acid, succinimidyl ester. This fluorochrome is excited at 433 nm and the maximum emission occurs at 475 nm providing the possibility of testing the assay with different emission colors. To modify the fluorochrome, ˜20 nmoles of the oligonucleotides were dissolved in 50 μl of 50 mM NaHCO3 (pH 8.3) and 50 nmoles of dry 7-diethylaminocoumarin-3-carboxylic acid, succinimidyl ester (Molecular Probes, Eugene, Oreg.) were added. The reaction mixture was incubated overnight at room temperature. […]
In the first experiment (FIG. 8), the pair of CAP5/CAP3 and CAP4/CAP1 nucleic acid duplexes were tested in the CAP assay. In this format, the 7-diethylaminocoumarin-3-carboxylic acid label present in the CAP5/CAP3 duplex functions as the fluorescence donor and the dabcyl label present in the CAP4/CAP1 duplex functions as a fluorescence acceptor.

[2] = test system: CAP6/CAP1 and CAP2/CAP3 nucleic acid duplexes; test: CAP assay with coumarin donor and fluorescein acceptor; type: binding, E. coli; conditions: 0 to 150 nM CAP, excitation 433 nm
Source text: as §1, with “colors.” for “colors. To modify the fluorochrome, ˜20 nmoles of the oligonucleotides were dissolved in 50 μl of 50 mM NaHCO3 (pH 8.3) and 50 nmoles of dry 7-diethylaminocoumarin-3-carboxylic acid, succinimidyl ester (Molecular Probes, Eugene, Oreg.) were added. The reaction mixture was incubated overnight at room temperature.”
In a second experiment (FIG. 9), the pair of CAP6/CAP1 and CAP2/CAP3 nucleic acid duplexes were tested for the performance in CAP assay. In this assay format, the 7-diethylaminocoumarin-3-carboxylic acid present in the CAP6/CAP1 duplex functioned as a fluorescence donor and the fluorescein present in the CAP2/CAP3 duplex functioned as an acceptor. […] Also, as shown in the inset of FIG. 9, the ratio between the fluorescence intensities at 520 nm and 475 nm may be used to determine the concentration of nucleic acid binding proteins. […]

[3] = test system: CAP5/CAP3 and CAP1/CAP4 duplexes; test: two-color simultaneous detection, coumarin-labeled CAP constructs; type: binding; conditions: excitation 433 nm, one protein only
Source text: The compatibility of the assays described in the instant invention with a variety of fluorescence probes emitting at different wavelengths allows for the designing of variations in which two or more proteins may be detected simultaneously. Nucleic acid constructs specific for each of the proteins to be detected may be labeled with probes that emit light at different wavelengths. In this example, the reaction mixture contained nucleic acid constructs labeled with 7-diethylaminocoumarin-3-carboxylic acid for detecting CAP protein (described in EXAMPLE 2) and nucleic acid constructs labeled with fluorescein for detecting TrpR protein (described in EXAMPLE 6). Specifically, 100 nM CAP5/CAP3, 120 nM CAP1/CAP4, 100 nM TRP2/TRP3, and 120 nM TRP1/TRP4 duplexes were present in the reaction mixture.
The fluorescence spectra with the excitation at 433 nm (excitation of 7-diethylaminocoumarin-3-carbo acid, FIG. 17A) and with the excitation at 490 nm (excitation of fluorescein, FIG. 17B) were recorded in the absence of the proteins (curves 1), in the presence of CAP only (curves 2), in the presence of TrpR only (curves 3), and in the presence of both CAP and TrpR (curves 4). In the presence of only CAP there was no change in the fluorescein signal (FIG. 17B, curve 2) whereas about 60% quenching of the 7-diethylaminocoumarin-3-carbox acid signal was observed (FIG. 17A, curve 2). […]

CAP protein = CAP protein (Escherichia coli, UniProt P0ACJ8); conditions: in the absence of cAMP
DNA = conditions: sequence specific binding; cited from earlier work

B1: CAP: bacterial transcription activator from E. coli which binds DNA in a sequence specific, cAMP-dependent manner (protein, UniProt P0ACJ8 2-210, looked up)
DNA-binding transcriptional …: VLGKPQTDPTLEWFLSHCHIHKYPSKSTLIHQGEKAETLYYIVKGSVAVLIKDEEGKEMILSYLNQGDFIGELGLFEEGQERSAWVRAKTACEVAEISYKKFRQLIQVNPDILMRLSAQMARRLQVTSEKVGNLAFLDVTGRIAQTLLNLAKQPDAMTHPDGMQIKITRQEIGQIVGCSRETVGRILKMLEDQNLISAHGKTIVVYGTR
[1]
  quenching of the fluorescence signal: ~70%
[2]
  change of emission peaks: pronounced quenching of the peak at 475 nm and a pronounced enhancement of the peak at 520 nm
[3]
  quenching of the 7-diethylaminocoumarin-3-carboxylic acid signal: about 60%
CAP protein
  CAP binding to the CAP1/CAP4 and CAP2/CAP3 DNA duplex: No detectable binding
DNA
  Kd: ~0.1 nM
